Experimental data reported in the RNAGym collection of RNA variant scans (doi:10.1073/pnas.2313332121).

B1: TPR t1 (parent)
chain: GACCAAUCUGCCCUCAGAGCUCGAGAACAUCUUCGGAUGCAGAGGAGGCAGGCUUCGGUGGCGCGAUAGCGCCAACGUCCUCAACCUCCAAUGCAUCCCACCACAUGAUGAUGCCUGAAGAGCCUUGGUUUUUUG

Variants of: B1
Assay: polymerase ribozyme fitness, log enrichment relative to wild type (log ratio); higher = more active; in vitro selection for triplet polymerase activity
Summary of the method: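 In triplicate, a single round of in vitro selection was run on each mutant library, PCR-built and transcribed, covering one subunit of a heterodimeric triplet polymerase ribozyme. Frozen incubation at −7 °C followed annealing with a biotinylated primer, partner subunit and triplets, and extended constructs were then gel-excised, streptavidin-captured and taken through RT-PCR. Fitness is the logarithm of genotype enrichment over wild-type enrichment, from inverse-variance-weighted replicate averages of Illumina-sequenced inputs and outputs. […] only genotypes with ≥10 input reads and ≥1 read per output were kept.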
For GACCAAUCUGCCCUCAGAGCUCGAGAACAUCUUCGGAUGCAAAGGAGGCAGGCGUCGGUGGCGCGAUAGCGCCAACGUCCUCAACCUCCAAUGCAUCCCACCGCAUGAAGAUGCCUCAAGAGCCUUGGUUUUUUG [G42A U54G A103G U109A G117C], the “polymerase ribozyme fitness (log ratio)” value was -6.58. For GACCAAUUUGCCCUCAGAGCUCGAGAACAUCUUCGGAUGCAGAGGAGGCAGUCGUCGGUGGCACGAUAGCGCCAACGUCCUCAACCUCCAAUGCAUCCCACCACAUGAUGAUGCCUGGAGAGCCUUGGUUUUUUG [C8U G52U U54G G63A A118G], the “polymerase ribozyme fitness (log ratio)” value was -3.26. For GACCAAUCUGCCCUCAGAGCUCGAGAACAUCUUCGGAUGCAGAGGAGGCAGGCUUCGGUCGCGCGAUAGCGCCAACAUCCUCAACCUCCAAUGCAUCCCACCACAUGAUGAUGCCUGAAGAGCCUUGGUUUUUUG [G60C G77A], the “polymerase ribozyme fitness (log ratio)” value was -1.47. For GACCAAUCUGCCCUCAGAGCUCGAGAACAUCUUCGGAUGCAGAGGAGGCAGGCUUCGGUGGCGCGAUAGCGCCAACGUCCUCAACCUCCAAUGCAUCCCACCACAUGAUGGUGCCUGAAGAGCCUUGGUUUAUUG [A111G U132A], the “polymerase ribozyme fitness (log ratio)” value was 0.715. With GACCAAUAUGCCCUCAGAGCUCGAGAACAUCUUCGGAUGCAGAGGAGGCAGGCUUCGGUGUCGCGAUAGCGCCAACGUCCUCAACCUCCAAUGCAUCACACCACAUGAUGAUGCCUGAAGAGCCUUGGUUUUUUG [C8A G61U C98A] the “polymerase ribozyme fitness (log ratio)” value was -3.46. For GACCAAUCUGCCCUCAGAGCUCGAGAACAUCUUCGGAUGCAGAGGAGGCAGGCUUCGGUGGCGCGAUAGCGCCAACGUCCUCAACCUCCAAUGCAUCCCACCACAUGAUGAUGCCUGAACAGCCUUGGUUUUUUU [G120C G135U], the “polymerase ribozyme fitness (log ratio)” value was -0.76. With GACCAAUCUGCCCUCAGAGCUCGAGAACAUCUUCGGAUGCAGAGGAUGCAGGCUUCGGUGGCGCGAUAGCACCAACGUCCUCAACCUCCAAUGCAUCCCACCACAUGAUGAUGCCUGAAGAGCCUUGGUUUUUUG [G47U G71A] the “polymerase ribozyme fitness (log ratio)” value was -1.21. With GACCAAUCUGCCCUCAGAGCUCGAGAACAUCUUCGGAUGUAGAGGAGGCAGGCUUCGGUGUCGCGAUAGCGCCAACGUCCUCAACCUCCAAUGCAUACCACCACAUGAUGAUGCCUGAAGAGCCUUGGUUUUUUG [C40U G61U C97A] the “polymerase ribozyme fitness (log ratio)” value was -5.61. For GACCAAUCUGCCCUCAGAGCUCGAGAACAUCUUCGGAUGCCGUGGAGGCAGGUUUCGGUGGCGCGAUAGCGCCAACGUCCUCAACCUCCAAUGCAUCCCACCACAUGAUGAUGCCUGAAGAGCCUCGGUUUUUUG [A41C A43U C53U U126C], the “polymerase ribozyme fitness (log ratio)” value was -2.72. For GACCAAUCUGCCCUCAGAGCUCGAGAACAUCUUCGGAGGCAGAGGAGGCAGGCUUCGGUGGCGCGAUAGCGCCAACGUCCUCGACCUCCAAUGCAUCCCACCACAUGAUGAUGCCUGAAGAGCCUUGGUUUUUUG [U38G A83G], the “polymerase ribozyme fitness (log ratio)” value was -1.98. In the case of GACCAAUCUGCCCUCAGAGCUCGAGAACAUCUUCGGAUGCAGAAGAGGCAGGCUUCGGUCGCGCGAUAGCGCCAACGUCCUCAACCUCCAAUGCAUCCCACCACAUGAUGAUGCCUGAAGAGCAUUGGUUUUUUG [G44A G60C C124A], the “polymerase ribozyme fitness (log ratio)” value is reported as 0.703. For GACCAAUCUGCCCUCAGAGCUCGAGAACAUCUUCGGAUGCAGAGGAGGCAAGCUUCGGUGGCGCGAUAGCGCCAACGUCCUCAACCUCCAAUGCGUCCCACCACAUGAUGAUGCCUGAAGAGCCUUGGUUUUUUG [G51A A95G], the “polymerase ribozyme fitness (log ratio)” value was -2.62. In the case of GACCAAUCUGCCCUCAGAGCUCGAGAACAUCUUCGGAUGCAGAGGAGGGUGGCUUCGGUGGCGCGAUAGCGACAACGUCCUCAACCUCCAAUGAAUCCCACCACAUGAUGAUGCCUGAAGAGCCUUGGUUUUUUG [C49G A50U C72A C94A], the “polymerase ribozyme fitness (log ratio)” value is reported as -2.42. In the case of GACCAAUCUGCCCUCAGAGCUCGAGAACAUCUUCGGAUGCAGAGUAGGCAGGCUUCGGUGGCUCGAUAGCGCCAACGUCCUCAGCCUCCAAUGCAUCCCACCACAUGAUGAUGCCUGAAGAGCCUUGGUUUUUUG [G45U G63U A84G], the “polymerase ribozyme fitness (log ratio)” value is reported as -3.63. For GACCAAUCUGCCCUCAGAGCUCGAGAACAUCUUCGGAUGCAUAGGAGGCAGGCUUCGGUGGCGCGAUAGCGCCAACGUCCUCAACCUCCAAUGCAUCCCACCACAUGAUGAUGCCUGAAGAGCCUUGGUUUUUUU [G42U G135U], the “polymerase ribozyme fitness (log ratio)” value was -1.66. With GACCAAUCUGCCCUUAGAGCUCGAGAACAUCUUCGGAUGCAGAGGAGGCAGGCUUCGGUGGCGCGAUAGCGCCAACGUCCUCAACCUCCAAUGCAUCCCACCACAUGAUGAUGCCUGAAGAGCCUUGGUUUAUUG [C15U U132A] the “polymerase ribozyme fitness (log ratio)” value was -0.984. For GACCAAUCUGCCCUCAGAGCUCGAGAGCAUCUUCGGAUGCAGAGGAGGCAGGCUUCGGUGGCGCGAUAGCGCCAACGUCCUCAACUUCCAAUGUAUCCCACCACAUGAUGAUGCCUGAAGAGCCUUGGUUUUUUG [A27G C86U C94U], the “polymerase ribozyme fitness (log ratio)” value was -1.98. For GACCAAUCUGCCCUCAGAGCUCGAGAACAUCUUCGGAUGCAGAGGAGGCAGGCUUCGGUGGAGCGAUAGCGCCAACGUCCUCUACCUCCUCUGCAUCCCACCACAUGAUGAUGCCUGAAGAGCCUUGGUUUUUUG [C62A A83U A90U A91C], the “polymerase ribozyme fitness (log ratio)” value was -3.43. With GACCAAUCUGCCCUCAGAGCUCGAGAACAUCUUCGGAUGCAGACGAGGCAGGCUUCGGUGGAGCGAUAGCGCCAACAUCCUCAACCUCCAAUGCAUCCCACCACAUGAUGAUGCCUGAAGAGCCUUGGUUUUAUG [G44C C62A G77A U133A] the “polymerase ribozyme fitness (log ratio)” value was -4.24. With GACCAAUCUGCCCUCAGAGCUCGAGAACAUCUUCGGAUGUAGAGGAGGCAGGCUUCGGUGGCGCGAUAGCGCCAACGUCCUCAACCUCCAAUGCAUCCAACCACAUGAUGAUGCCUGAAGAGCCUUGGUUUUUUG [C40U C99A] the “polymerase ribozyme fitness (log ratio)” value was -4.45. In the case of GAACAAUCUGCCCUCAGAGAUCGAGAACAUCUUCGGAUGCAGAGGAGGGCGGCUUCGGUGUCGCGAUAGCGCCAACGUCCUCAACCUCCAAUGCAUCCCACCACAUGAUGAUGCCUGAAGAGCCUUGGUUUUUUG [C3A C20A C49G A50C G61U], the “polymerase ribozyme fitness (log ratio)” value is reported as -5.32.
